Source: paper PMC10438466

B1: FOXA1: FOXA13A (protein)
parent chain: MLGTVKMEGHETSDWNSYYADTQEAYSSVPVSNMNSGLGSMNSMNTYMTMNTMTTSGNMTPASFNMSYANPGLGAGLSPGAVAGMPGGSAGAMNSMTAAGVTAMGTALSPSGMGAMGAQQAASMNGLGPYAAAMNPCMSPMAYAPSNLGRSRAGGGGDAKTFKRSYPHAKPPYSYISLITMAIQQAPSKMLTLSEIYQWIMDLFPYYRQNQQRWQNSIRHSLSFNDCFVKVARSPDKPGKGSYWTLHPDSGNMFENGCYLRRQKRFKCEKQPGAGGGGGSGSGGSGAKGGPESRKDPSGASNPSADSPLHRGVHGKTGQLEGAPAPGPAASPQTLDHSGATATGGASELKTPASSTAPPISSGPGALASVPASHPAHGLAPHESQLHLKGDPHYSFNHPFSINNLMSSSEQQHKLDFKAYEQALQYSPYGSTLPASLPLGSASVTTRSPIEPSALEPAYYQGVYSRPVLNTS
B2: FOXA1: OSMI-4 (protein)
parent chain: B1 parent chain
B3: FOXA1: TMG (protein)
parent chain: B1 parent chain

What was measured:
[1] = cycloheximide chase, WB, MCF-7 FOXA1 KO; conditions: glycan lost; control: FOXA1WT
[2] = HA IP, anti-phospho-Ser/Thr WB; conditions: glycan lost; control: FOXA1WT, untreated
HA IP, anti-ubiquitin WB = conditions: control: untreated HA-FOXA1WT cells
[3] = WB of HA-FOXA1 protein level; conditions: control: untreated HA-FOXA1WT cells

Protein	degradation_or_half_life [1]	other: serine/threonine phosphorylation [2]	other: ubiquitination (HA IP, anti-ubiquitin WB; glycan lost)	expression_or_secretion ([3]; glycan lost)	other: ubiquitination (HA IP, anti-ubiquitin WB; glycan gained)	expression_or_secretion ([3]; glycan gained)
B1	increases	decreases				
B2		decreases	decreases	increases		
B3					increases	decreases
